Reference: patent publication US20230250170A1
Where two headings read alike, the source gives them in different places.

Experiments:
[1] = molecular target: human NPR1 on HEK293/hNPR1 cells (human) (UniProt P16066)
[2] = molecular target: human NPR1 on HEK293/hNPR1 cells (human) (UniProt P16066); remark: listed apart in the source
[3] = molecular target: human NPR1 on HEK293/hNPR1 cells (human) (UniProt P16066); remark: listed apart in the source
[4] = molecular target: human NPR1 on HEK293/hNPR1 cells (human) (UniProt P16066); remark: listed apart in the source

human NPR1 on HEK293/hNPR1 cells (human), sequence (P16066 33-1061): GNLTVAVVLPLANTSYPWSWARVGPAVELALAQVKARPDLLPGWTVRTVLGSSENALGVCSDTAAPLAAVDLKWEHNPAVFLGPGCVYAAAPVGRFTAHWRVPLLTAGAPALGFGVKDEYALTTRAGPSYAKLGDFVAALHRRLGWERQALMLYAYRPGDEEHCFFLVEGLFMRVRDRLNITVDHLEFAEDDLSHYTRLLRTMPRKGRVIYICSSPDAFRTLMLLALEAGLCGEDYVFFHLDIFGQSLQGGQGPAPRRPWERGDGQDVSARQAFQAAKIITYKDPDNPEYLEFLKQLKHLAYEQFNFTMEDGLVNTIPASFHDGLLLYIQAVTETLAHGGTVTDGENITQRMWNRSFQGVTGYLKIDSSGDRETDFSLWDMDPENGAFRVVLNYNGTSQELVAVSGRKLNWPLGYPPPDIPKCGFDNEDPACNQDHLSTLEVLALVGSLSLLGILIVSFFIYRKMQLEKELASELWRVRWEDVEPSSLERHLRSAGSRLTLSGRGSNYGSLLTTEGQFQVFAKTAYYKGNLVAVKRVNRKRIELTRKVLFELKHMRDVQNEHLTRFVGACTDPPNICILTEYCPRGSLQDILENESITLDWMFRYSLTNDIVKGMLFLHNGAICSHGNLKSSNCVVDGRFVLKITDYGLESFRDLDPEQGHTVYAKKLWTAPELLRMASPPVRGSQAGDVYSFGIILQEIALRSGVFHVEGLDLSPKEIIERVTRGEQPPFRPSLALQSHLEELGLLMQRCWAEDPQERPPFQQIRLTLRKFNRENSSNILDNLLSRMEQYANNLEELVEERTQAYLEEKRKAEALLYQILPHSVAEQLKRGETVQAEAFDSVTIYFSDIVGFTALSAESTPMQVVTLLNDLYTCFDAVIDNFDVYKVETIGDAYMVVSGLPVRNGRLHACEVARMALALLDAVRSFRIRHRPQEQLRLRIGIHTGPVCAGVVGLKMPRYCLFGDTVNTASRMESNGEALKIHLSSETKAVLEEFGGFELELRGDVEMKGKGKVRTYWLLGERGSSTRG

An EC50 (read off the curve); cGMP accumulation, HEK293/hNPR1 cells, ANP after pre-treatment with 50 nM REGN7548 [1] of 0.7 nM, an EC50 (read off the curve); cGMP accumulation, HEK293/hNPR1 cells, ANP alone (dilution buffer) [1] of 0.09 nM and an EC50 (read off the curve); cGMP accumulation, HEK293/hNPR1 cells, ANP after pre-treatment with 50 nM H4H22034N [2] of 0.6 nM were found for SLRRSSCFGGRMDRIGAQSGLGCNSFRY (ligand, UniProt P01160 124-151, looked up) [atrial natriuretic peptide (ANP)] in this work. It also gave an EC50 (read off the curve); cGMP accumulation, HEK293/hNPR1 cells, ANP after pre-treatment with 150 nM H4H22034N [2] of 0.6 nM, an EC50 (read off the curve); cGMP accumulation, HEK293/hNPR1 cells, ANP after pre-treatment with 450 nM H4H22034N [2] of 0.6 nM and an EC50 (read off the curve); cGMP accumulation, HEK293/hNPR1 cells, ANP after pre-treatment with 50 nM REGN7544 [3] of 0.3 nM. The EC50 (read off the curve); cGMP accumulation, HEK293/hNPR1 cells, ANP after pre-treatment with 150 nM REGN7544 [3] was 0.8 nM, the EC50 (read off the curve); cGMP accumulation, HEK293/hNPR1 cells, ANP after pre-treatment with 450 nM REGN7544 [3] was 40 nM and the EC50 (read off the curve); cGMP accumulation, HEK293/hNPR1 cells, ANP alone (dilution buffer) [3] was 0.1 nM. It also gave an EC50 (read off the curve); cGMP accumulation, HEK293/hNPR1 cells, ANP after pre-treatment with 50 nM REGN7541 [4] of 0.2 nM, an EC50 (read off the curve); cGMP accumulation, HEK293/hNPR1 cells, ANP after pre-treatment with 150 nM REGN7541 [4] of 0.8 nM and an EC50 (read off the curve); cGMP accumulation, HEK293/hNPR1 cells, ANP alone (dilution buffer) [4] of 0.07 nM.
